How the values were obtained:
[1] = target: T1, SKC-2-C42 (SKC-2 with deletion of the last 42 residues, 373-414)
T1 chain: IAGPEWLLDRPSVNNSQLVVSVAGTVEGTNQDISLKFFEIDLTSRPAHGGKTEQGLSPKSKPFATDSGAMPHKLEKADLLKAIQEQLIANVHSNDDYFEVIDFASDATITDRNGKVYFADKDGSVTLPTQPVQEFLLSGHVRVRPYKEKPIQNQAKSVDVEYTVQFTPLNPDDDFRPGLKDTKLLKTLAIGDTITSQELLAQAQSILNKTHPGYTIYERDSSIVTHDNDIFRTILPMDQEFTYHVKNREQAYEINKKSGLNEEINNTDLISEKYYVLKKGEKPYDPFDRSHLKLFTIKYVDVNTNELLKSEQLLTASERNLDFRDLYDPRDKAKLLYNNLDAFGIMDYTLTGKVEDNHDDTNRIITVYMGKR

[2] = target: T2, SKC-2-N13 (SKC-2 with deletion of the first 13 N-terminal residues)
T2 chain: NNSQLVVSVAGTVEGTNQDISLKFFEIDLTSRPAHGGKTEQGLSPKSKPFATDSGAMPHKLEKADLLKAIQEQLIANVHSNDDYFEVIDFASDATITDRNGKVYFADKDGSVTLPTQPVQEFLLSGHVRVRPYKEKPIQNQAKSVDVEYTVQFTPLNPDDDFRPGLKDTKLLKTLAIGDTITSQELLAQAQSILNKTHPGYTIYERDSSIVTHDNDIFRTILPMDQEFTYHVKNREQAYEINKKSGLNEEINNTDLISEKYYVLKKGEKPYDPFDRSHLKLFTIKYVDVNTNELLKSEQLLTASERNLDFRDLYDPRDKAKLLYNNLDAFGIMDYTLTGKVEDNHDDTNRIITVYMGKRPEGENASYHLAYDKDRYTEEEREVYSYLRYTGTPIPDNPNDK

B1: human plasminogen (protein)
chain: EPLDDYVNTQGASLFSVTKKQLGAGSIEECAAKCEEDEEFTCRAFQYHSKEQQCVIMAENRKSSIIIRMRDVVLFEKKVYLSECKTGNGKNYRGTMSKTKNGITCQKWSSTSPHRPRFSPATHPSEGLEENYCRNPDNDPQGPWCYTTDPEKRYDYCDILECEEECMHCSGENYDGKISKTMSGLECQAWDSQSPHAHGYIPSKFPNKNLKKNYCRNPDRELRPWCFTTDPNKRWELCDIPRCTTPPPSSGPTYQCLKGTGENYRGNVAVTVSGHTCQHWSAQTPHTHNRTPENFPCKNLDENYCRNPDGKRAPWCHTTNSQVRWEYCKIPSCDSSPVSTEQLAPTAPPELTPVVQDCYHGDGQSYRGTSSTTTTGKKCQSWSSMTPHRHQKTPENYPNAGLTMNYCRNPDADKGPWCFTTDPSVRWEYCNLKKCSGTEASVVAPPPVVLLPDVETPSEEDCMFGNGKGYRGKRATTVTGTPCQDWAAQEPHRHSIFTPETNPRAGLEKNYCRNPDGDVGGPWCYTTNPRKLYDYCDVPQCAAPSFDCGKPQVEPKKCPGRVVGGCVAHPHSWPWQVSLRTRFGMHFCGGTLISPEWVLTAAHCLEKSPRPSSYKVILGAHQEVNLEPHVQEIEVSRLFLEPTRKDIALLKLSSPAVITDKVIPACLPSPNYVVADRTECFITGWGETQGTFGAGLLKEAQLPVIENKVCNRYEFLNGRVQSTELCAGHLAGGTDSCQGDSGGPLVCFEKDKYILQGVTSWGLGCARPNKPGVYVRVSRFVTWIEGVMRNN
[1]
  specific activity (agarose-fibrin plates, chromogenic substrate, clot lysis): 50000-100000 IU/mg
[2]
  specific activity (agarose-fibrin plates, chromogenic substrate, clot lysis): 2000-4000 lU/mg

From patent US6413759
